{
  "source": "paper PMC11118347",
  "about": "(bioRxiv, 2024)",
  "biological_target": "the molecule itself",
  "test": "crystal structure",
  "data": [
    {"protein": "Human lens fiber membrane intrinsic protein MP20 (construct selected for crystallization) (natural protein, Janelia Fluor 549 NHS-ester labelling on column; membranes incubated with iodoacetamide) MYSFMGGGLFCAWVGTILLVVAMATDHWMQYRLSGSFAHQGLWRYCLGNKCYLQTDSIAYWNATRAFMILSALCAISGIIMGIMAFAHQPTFSRISRPFSAGIMFFSSTLFVVLALAIYTGVTVSFLGRRFGDWRFSWSYILGWVAVLMTFFAGIFYMCAYRVHECRRLSTPR", "values": [
      {"measurement": "stoichiometry N", "result": 4}
    ]}
  ]
}
